Each binder was assayed against acetylcholine receptor (assay: SPR, receptor immobilised on chip, peptide at 10 uM).

Row | Binding affinity (RU) | Binder
1 | 41 | KCEDRK [6mer-2-964]
2 | 22 | KTDKRK [6mer-2-942]
3 | 40 | RDTHRR [6mer-2-957]
4 | 28 | KFKARK [6mer-2-958]
5 | 29 | RMPERR [6mer-2-955]
6 | 25 | KESVKK [6mer-2-953]
7 | 35 | RTNARK [6mer-2-959]
8 | 42 | KKCERK [6mer-2-945]
9 | 30 | KKSNRK [6mer-2-962]
10 | 33 | RDEDKR [6mer-2-941]
11 | 28 | RPPFRR [6mer-2-948]
12 | 22 | KKCARR [6mer-2-939]
13 | 24 | KYWGRR [6mer-2-952]
14 | 41 | RNENKK [6mer-2-940]
15 | 21 | KNTKKR [6mer-2-961]
16 | 26 | KYNKRR [6mer-2-950]

Row | Binding affinity (RU) | Binder
17 | 32 | KCTIRK [6mer-2-954]
18 | 39 | RPNARR [6mer-2-949]
19 | 35 | KPEDKK [6mer-2-944]
20 | 22 | KKCNKK [6mer-2-935]
21 | 40 | RIEHKR [6mer-2-938]
22 | 37 | KAKHRR [6mer-2-963]
23 | 29 | RDCVKR [6mer-2-960]
24 | 41 | KTNWRK [6mer-2-947]
25 | 42 | RADEKK [6mer-2-951]
26 | 36 | KPWFKR [6mer-2-965]
27 | 35 | RASHRR [6mer-2-937]
28 | 21 | KPCEKK [6mer-2-946]
29 | 28 | KFCWRR [6mer-2-956]
30 | 41 | KIDHRR [6mer-2-943]
31 | 21 | KPPAKK [6mer-2-936]

— patent publication US20250011363A1, “OPTIMIZED SHORTENED PEPTIDE THAT BINDS TO ACETYLCHOLINE RECEPTOR, AND USE THEREOF” (SKINMED CO., LTD., priority 2021, published 2025)
